Measured values from article PMC3024946, “Hydroxyproline-containing collagen analogs trigger the release and activation of collagen-sequestered proMMP-2 by competition with prodomain-derived peptide P33-42” (Fibrogenesis & Tissue Repair, 2011).

Tests used:
[1] = In situ binding of MMPs to fibrotic liver sections; set-up: species or system human; settings: immunohistochemistry; 25 ng MMP, 30 min
Procedure: Human cirrhotic liver cryostat sections (5 μm) were air-dried and fixed in ice-cold acetone for 10 min. Tissue sections were rehydrated with PBS and incubated with 25 ng/50 μl of the respective proMMP and actMMP for 30 min or were left untreated. After thorough washing with PBS, antibodies specific for human MMP-9 (clone MAB911; R&D Systems, Minneapolis, MN, USA) and human MMP-2 (clone 75-7F7; Oncogene, Cambridge, MA, USA) were applied, and primary antibody binding was detected using the alkaline phosphatase-antialkaline phosphatase detection system (Dako, Hamburg, Germany). An irrelevant primary mouse antibody served as control. Nuclei were counterstained with Hemalaun, and slides were examined by standard light microscopy.

[2] = system: collagen type I (CI); assay: SPR binding of MMPs to immobilized CI, nonactivating buffer; set-up: species or system human; settings: for Off rate / Kd: without (GPO)10, MMP 100 nM, PBS, 0.05% Tween 20, 25°C; for Off rate: mean from at least three experiments; for Kd: mean ± SD, at least three experiments
Procedure: (§1) Sensor chip preparations and SPR measurements were performed using a BiacoreX device and the Bia-evaluation software (version 3.2; Biacore, Uppsala, Sweden). The pepsin-resistant triple-helical part of human fibrillar CI (100 μg/ml) in 10 mM acetate coupling buffer, pH 4.8, was immobilized to a dextran matrix-sensor chip at a flow rate of 5 μl/min, resulting in 5,500 resonance units from CI covalently linked via its primary amino groups. The control flow cell was prepared using the coupling buffer without CI. Surfaces were activated and blocked as described previously. Immediately after thawing, pro- and actMMP-2 and pro- and actMMP-9 were diluted to 100 to 250 nM in MMP activity buffer or in PBS and 0.05% (vol/vol) Tween 20. For SPR measurements, flow rates were 10 μl/min at 25°C, and equilibrium was typically reached after 30 to 60 s. The effects of (GPO)10, GAP, (POG)5, (GPP)10 and P33-42 on MMP-2 and MMP-9 binding to CI and their enzymatic activity were determined by adding the binding competitors to the (pro- and act)MMP-2 and MMP-9 solution in 10- to 150-fold molar excesses. Effects independent of MMP-2 and MMP-9 activity were monitored in the presence of Ro 28-2653 (1 μM) during SPR analysis. The gelatinase inhibitor Ro 28-2653 was a generous gift from H.-W. Krell (Roche, Grenzach-Wyhlen, Germany). Sensor surfaces were regenerated with 10 mM glycine, pH 2.3, for 1 min between runs, and sensor chips were used up to 25 times. Kinetic parameters were analyzed using the 1:1 binding model with drifting baseline and subtraction of the control flow cell binding from sensorgrams obtained with immobilized CI. Binding constants (Kd) were calculated from the association (ka) and dissociation rates (kd) obtained from individual binding curves at different concentrations. Individual drifts of the resonance signal were fitted locally, and χ^2 values of 0.2% to 1.0% of the maximum resonance value were considered good fits.

[3] = system: collagen type I (CI); assay: SPR binding of MMP-2 to CI, MMP activity buffer with Ro 28-2653; set-up: species or system human
Procedure: as §1

[4] = system: ProMMP-2; assay: DQ-gelatine degradation assay with MMP-2; format: biochemical, human; settings: MMP alone; 10 ng; 5 h at 25°C; plateau (actMMP-2) or baseline (proMMP-2) level

Molecule	binding to liver sections [1]	reduction of binding upon MMP activation ([2]; nonactivating buffer)	Off rate [2]	Kd [2]	reduction of binding upon MMP activation ([3]; MMP activity buffer with Ro 28-2653)	binding enhancement to CI ([3]; MMP activity buffer with Ro 28-2653 vs nonactivating buffer)	Kd ([3]; no competitor, MMP-2 100 nM, MMP activity buffer, 1 μM Ro 28-2653, 25°C, mean ± SD, at least three experiments)	DQ-gelatine conversion [4]
ProMMP-2: 72-kDa latent proform of human recombinant MMP-2 (protein, [125I]-Bolton-Hunter label in the solid-phase assays (dot blot, microwells); Cy2 label in the tissue release experiment; no label told for SPR and immunohistochemistry) APSPIIKFPGDVAPKTDKELAVQYLNTFYGCPKESCNLFVLKDTLKKMQKFFGLPQTGDLDQNTIETMRKPRCGNPDVANYNFFPRKPKWDKNQITYRIIGYTPDLDPETVDDAFARAFQVWSDVTPLRFSRIHDGEADIMINFGRWEHGDGYPFDGKDGLLAHAFAPGTGVGGDSHFDDDELWTLGEGQVVRVKYGNADGEYCKFPFLFNGKEYNSCTDTGRSDGFLWCSTTYNFEKDGKYGFCPHEALFTMGGNAEGQPCKFPFRFQGTSYDSCTTEGRTDGYRWCGTTEDYDRDKKYGFCPETAMSTVGGNSEGAPCVFPFTFLGNKYESCTSAGRSDGKMWCATTANYDDDRKWGFCPDQGYSLFLVAAHEFGHAMGLEHSQDPGALMAPIYTYTKNFRLSQDDIKGIQELYGASPDIDLGTGPTPTLGPVTPEICKQDIVFDGIAQIRGEIFFFKDRFIWRTVTPRDKPMGPLLVATFWPELPEKIDAVYEAPQEEKAVFFAGNEYWIYSASTLERGYPKPLTSLGLPPDVQRVDAAFNWSKNKKTYIFAGDKFWRYNEVKKKMDPGFPKLIADAWNAIPDNLDAVVDLQGGGHSYFFKGAYYLKLENQSLKSVKFGSIKSDWLGC	preferential staining of fibrotic septa	2.5 -fold	~0.48 s⁻¹	70 ± 30 nM	35 -fold	10 -fold	7.1 ± 0.1 nM	about 200 relative fluorescence units
ProMMP-9: 92-kDa latent proform of human recombinant MMP-9 (protein, [125I]-Bolton-Hunter label in the solid-phase assays (dot blot, microwells); no label told for SPR and immunohistochemistry) APRQRQSTLVLFPGDLRTNLTDRQLAEEYLYRYGYTRVAEMRGESKSLGPALLLLQKQLSLPETGELDSATLKAMRTPRCGVPDLGRFQTFEGDLKWHHHNITYWIQNYSEDLPRAVIDDAFARAFALWSAVTPLTFTRVYSRDADIVIQFGVAEHGDGYPFDGKDGLLAHAFPPGPGIQGDAHFDDDELWSLGKGVVVPTRFGNADGAACHFPFIFEGRSYSACTTDGRSDGLPWCSTTANYDTDDRFGFCPSERLYTQDGNADGKPCQFPFIFQGQSYSACTTDGRSDGYRWCATTANYDRDKLFGFCPTRADSTVMGGNSAGELCVFPFTFLGKEYSTCTSEGRGDGRLWCATTSNFDSDKKWGFCPDQGYSLFLVAAHEFGHALGLDHSSVPEALMYPMYRFTEGPPLHKDDVNGIRHLYGPRPEPEPRPPTTTTPQPTAPPTVCPTGPPTVHPSERPTAGPTGPPSAGPTGPPTAGPSTATTVPLSPVDDACNVNIFDAIAEIGNQLYLFKDGKYWRFSEGRGSRPQGPFLIADKWPALPRKLDSVFEERLSKKLFFFSGRQVWVYTGASVLGPRRLDKLGLGADVAQVTGALRSGRGKMLLFSGRRLWRFDVKAQMVDPRSASEVDRMFPGVPLDTHDVFQYREKAYFCQDRFYWRVSSRSELNQVDQVGYVTYDILQCPED	preferential staining of fibrotic septa		0.32 s⁻¹	120 ± 90 nM				
